{
  "source": "patent US11819552B2",
  "about": "“Antibody-drug conjugates targeting uPARAP” (RIGSHOSPITALET, priority 2016, dated 2023)",
  "molecules": {"B1": {"name": "2h9-vc-MMAE: uPARAP-directed ADC: mAb 2h9 conjugated to MC-VC-PAB-MMAE (Vedotin) linker-toxin (conjugate)", "light": "DIQMTQSPASQSASLGESVTITCLASQTIGTWLAWYQQKPGKSPQLLIYAATTLTDGVPSRFSGAGSGTKFSLKISSLQAEDFASYFCQEFFSTPFTFGSGTKLELKRADAAPTVSIFPPSSEQLTSGGASVVCFLNNFYPKDINVKWKIDGGERQNGVLNSWTDQDSKDSTYSMSSTLTLTKDEYERHNSYTCEATHKTSTSPIVKSFNRNEC", "heavy": "QVQLQQPGTELVRPGLSVKLSCKASGYTFTSYWMNWVKQRPGQGLEWIGMIHPSNDEKRINQKFKDKATLTVDKFSSTVYMQVSSPTSEDSAVYYCARGGGDYVGDYALDFWGQGTSVTVSSAKTTPPSVYPLAPGSAAQTNSMVTLGCLVKGYFPEPVTVTWNSGSLSSGVHTFPAVLQSDLYTLSSSVTVPSSTWPSETVTCNVAHPASSTKVDKKIVPRDCGCKPCICTVPEVSSVFIFPPKPKDVLTITLTPKVTCVVVDISKDDPEVQFSWFVDDVEVHTAQTQPREEQFNSTFRSVSELPIMHQDWLNGKEFKCRVNSAAFPAPIEKTISKTKGRPKAPQVYTIPPPKEQMAKDKVSLTCMITDFFPEDITVEWQWNGQPAENYKNTQPIMDTDGSYFIYSKLNVQKSNWEAGNTFTCSVLHEGLHNHHTEKSLSHSPGK"}},
  "key": {"[1]": {"target": "T1, recombinant human (rh) Cathepsin B (Homo sapiens, UniProt P07858)", "T1 construct": "purchased", "experiment": "Cathepsin B linker cleavage assay (reducing SDS-PAGE)", "format": "biochemical", "details": "incubation with activated rh cathepsin B, 37° C. overnight", "method": "Reducing SDS-PAGE was performed by running a 4-12% NuPAGE Bis-Tris SDS-PAGE gel, loading 5 μg of total protein per lane, reduced by boiling for 3 minutes in sample buffer in the presence of 40 mM DTT. The gels were stained using a standard 0.1% coomassie blue stain. For cathepsin B linker cleavage assay, samples were treated with recombinant human (rh) Cathepsin B according to manufacturer's instructions, using 100 ng of activated rhCathepsin B to 20 μg ADC (mAb component), in a 25 mM MES, pH 5.0 buffer, and incubation at 37° C. overnight."}, "[2]": {"system": "CHO-K1 (receptor-negative cell line)", "experiment": "In vitro cytotoxicity of ADCs, cell viability assay (MTS)", "format": "cell-based", "details": "72 hours, 4-fold dilutions from 10 μg/mL ADC", "method": "(§1) Cells tested were seeded at low density (20-25% confluence, generally 5-10×10^3 cells per well) in a 96 well plate in 90 μL of medium, and incubated overnight. […] Cells were incubated for 72 hours, before 20 μL of CellTiter 96 AQueous One Solution Cell Proliferation Assay (MTS, Promega) was added, and incubated for an appropriate time for formation of color (usually 1 hour). The plates were then read at 490 nm, with background subtraction at 630 nm, using a plate reader."}, "U937 cells [3]": {"system": "U937 cells", "experiment": "In vitro cytotoxicity of ADCs, cell viability assay (MTS)", "format": "cell-based", "details": "72 hours, 4-fold dilutions from 10 μg/mL ADC (mAb component), vs aTNP-vc-MMAE", "method": "as §1"}, "THP-1 cells [4]": {"system": "THP-1 cells", "experiment": "In vitro cytotoxicity of ADCs, cell viability assay (MTS)", "format": "cell-based", "details": "72 hours, 4-fold dilutions from 10 μg/mL ADC, vs aTNP-vc-MMAE", "method": "as §1"}, "KNS42 cells [5]": {"system": "KNS42 cells", "experiment": "In vitro cytotoxicity of ADCs, cell viability assay (MTS)", "format": "cell-based", "details": "72 hours, 4-fold dilutions from 10 μg/mL ADC, vs aTNP-vc-MMAE", "method": "as §1"}, "HT1080 cells [6]": {"system": "HT1080 cells", "experiment": "In vitro cytotoxicity of ADCs, cell viability assay (MTS)", "format": "cell-based", "details": "72 hours, 4-fold dilutions from 10 μg/mL ADC, vs aTNP-vc-MMAE", "method": "as §1"}, "U937 xenograft tumour [7]": {"system": "U937 xenograft tumour", "experiment": "Subcutaneous uPARAP-positive U937 xenograft tumour model, treatment by intravenous injection", "format": "in vivo, CB17 SCID mice", "method": "(§2) All animal experiments were performed under legal approval from The Danish Veterinary and Food Administration. All reagents and cell lines used for animal experiments were tested negative for the presence of murine viruses, bacteria, mycoplasma and fungi. Animals received standard of care, and were sacrificed upon any of the following signs: loss of more than 10% of body weight, visible distress or illness, compromised food—or water intake or defecation, signs of severe inflammation in the vicinity of tumours, or tumour growth which exceeded a volume of 1000 mm^3 or compromised the free movement of the animals. Tumour growth was measured using electronic calipers, and tumour volumes were calculated using the formula Volume=(LxW^2)/2, with L being the longest dimension of the tumour, and W being the width in the perpendicular dimension.\n(§3) For tumour establishment, mice were shaved at the flank, and received a subcutaneous injection of 1×10^6 U937 cells, and then closely monitored in order to observe the development of solid tumours. […] All treatments were given as a total of 3 intravenous doses of 5 mg/kg mAb component in the tail veins of the mice, at 4 days intervals. During treatment, the tumours were evaluated every two days, until reaching a point of sacrifice. Mice which fully lost any tumour burden were checked two times a week for a period of 3 months after ending treatment."}, "[8]": {"system": "human glioblastoma explant cells", "experiment": "In vitro cell viability assay on glioblastoma explant cells", "details": "as FIG. 5 assay; vs aTNP-based control ADCs", "method": "as §1\nThe ADCs 2h9-vc-MMAE and 2h9-vc-MMAF were tested by in vitro cell viability assays, performed as described in Example 1, for their capacity to specifically kill human glioblastoma explant cells. Glioblastoma explant cells are e.g. described in Staberg et al., 2017, Cell Oncol. 40: 21-32."}, "[9]": {"target": "T2, soluble truncated uPARAP protein containing the first 3 N-terminal domains of human uPARAP (Homo sapiens, UniProt Q9UBG0)", "T2 construct": "a soluble truncated uPARAP protein containing the first 3 N-terminal domains of human uPARAP", "T2 sequence (Q9UBG0 31-365)": "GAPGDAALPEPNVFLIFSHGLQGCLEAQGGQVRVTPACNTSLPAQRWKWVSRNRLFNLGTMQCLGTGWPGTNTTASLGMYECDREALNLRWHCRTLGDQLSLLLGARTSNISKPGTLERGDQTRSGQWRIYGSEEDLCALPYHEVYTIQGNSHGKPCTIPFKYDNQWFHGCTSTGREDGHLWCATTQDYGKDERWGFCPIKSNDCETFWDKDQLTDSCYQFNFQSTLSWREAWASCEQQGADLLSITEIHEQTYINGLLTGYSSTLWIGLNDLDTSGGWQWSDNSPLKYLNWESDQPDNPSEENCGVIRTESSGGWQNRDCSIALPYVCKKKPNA", "experiment": "ELISA analysis of uPARAP-binding of mAbs", "details": "after reduction step of conjugation, or in ADC form", "method": "Untreated mAbs (2h9 or aTNP), same mAbs subjected to the reduction procedure of conjugation (see above), or ADCs 2h9-vc-MMAE or aTNP-vc-MMAE, were then employed as a primary antibody, followed by a HRP-conjugated rabbit anti-mouse Ig secondary antibody. Finally an o-phenylenediamine dihydrochloride-containing substrate solution was added, and the color reaction was stopped by adding 1M H2SO4. Plates were read at 492 nm using a plate reader."}, "U937 cells [10]": {"system": "U937 cells", "experiment": "Cell cycle distribution analysis", "format": "cell-based", "details": "3-day incubation, 1 μg/mL ADC", "method": "(§4) Cell cycle analysis was performed using a Nucleocounter NC-3000 system (ChemoMetec Denmark), using the manufacturers standard protocol for analyzing the cell cycle distribution of a population of cells, based on the DNA content of each cell. The percentage of cells in Sub-G1, G1, S, or G2/M-phases of the cell cycle was established from histogram analysis using the NucleoView NC-3000 software."}, "THP-1 cells [11]": {"system": "THP-1 cells", "experiment": "Cell cycle distribution analysis", "format": "cell-based", "details": "3-day incubation, 1 μg/mL ADC", "method": "as §4"}, "KNS42 cells [12]": {"system": "KNS42 cells", "experiment": "Cell cycle distribution analysis", "format": "cell-based", "details": "3-day incubation, 1 μg/mL ADC", "method": "as §4"}, "HT1080 cells [13]": {"system": "HT1080 cells", "experiment": "Cell cycle distribution analysis", "format": "cell-based", "details": "3-day incubation, 1 μg/mL ADC", "method": "as §4"}, "U937 xenograft tumour [14]": {"system": "U937 xenograft tumour", "experiment": "Subcutaneous uPARAP-positive U937 xenograft tumour model, treatment by s.c. injection", "format": "in vivo, CB17 SCID mice", "method": "as §2\nas §3, with “4 subcutaneous” for “3 intravenous”, “3” for “5”, “tumour area,” for “tail veins of the mice,”, “intervals. Injections were performed under brief isoflurane anesthesia to avoid risks for the animal handler.” for “intervals.”"}, "[15]": {"details": "s.c., 3 mg/kg, 4 doses, of the 10 mice treated"}},
  "note": "“Also recorded” adds a separate entry of the source.",
  "data": [
    {"molecule": "B1", "values": [
      {"measurement": "Linker cleavage by cathepsin B (gel mobility)", "setting": "[1]", "result": "reverts ADC gel mobility back to that of unmodified targeting antibody"},
      {"measurement": "Overall cell viability", "setting": "[2]", "result": "remains unaffected"},
      {"measurement": "Overall cell viability", "setting": "U937 cells [3]", "result": "most sensitive cell line tested; also recorded: specific reduction in overall cell viability"},
      {"measurement": "Overall cell viability", "setting": "THP-1 cells [4]", "result": "specific reduction in overall viability"},
      {"measurement": "Overall cell viability", "setting": "KNS42 cells [5]", "result": "specific reduction in overall viability"},
      {"measurement": "Overall cell viability", "setting": "HT1080 cells [6]", "result": "specific reduction in overall viability"},
      {"measurement": "Tumour burden", "setting": "U937 xenograft tumour [7]; i.v. tail vein, 5 mg/kg mAb component, 3 doses every 4 days, all 10 mice", "result": "complete abrogation of the tumour burden"},
      {"measurement": "Permanent cure rate", "setting": "U937 xenograft tumour [7]; i.v., 5 mg/kg mAb component, 3 doses every 4 days, N=10", "result": 100, "unit": "%"},
      {"measurement": "Adverse / detrimental effects on treated mice", "setting": "U937 xenograft tumour [7]; regular inspection of the treated mice, antibody cross-reactive with murine uPARAP", "result": "without any evident adverse effects; also recorded: no signs of detrimental effects were seen"},
      {"measurement": "Cell viability / sensitivity of glioblastoma explant cells", "setting": "[8]", "result": "very strong and specific sensitivity; also recorded: high degree of specific sensitivity"},
      {"measurement": "Affinity towards uPARAP following conjugation procedure", "setting": "[9]", "result": "retained affinity"},
      {"measurement": "Cell cycle distribution", "setting": "U937 cells [10]", "result": "shift in cell cycle distribution towards the Sub-G1 and G2/M phases"},
      {"measurement": "Cell cycle distribution", "setting": "THP-1 cells [11]", "result": "shift in cell cycle distribution towards the Sub-G1 and G2/M phases"},
      {"measurement": "Cell cycle distribution", "setting": "KNS42 cells [12]", "result": "shift in cell cycle distribution towards the Sub-G1 and G2/M phases"},
      {"measurement": "Cell cycle distribution", "setting": "HT1080 cells [13]", "result": "shift in cell cycle distribution towards the Sub-G1 and G2/M phases"},
      {"measurement": "Tumour growth", "setting": "U937 xenograft tumour [14]; s.c. near the tumour, 3 mg/kg mAb component, 4 doses every 4 days", "result": "drastic decrease in tumour growth"},
      {"measurement": "Permanent cure rate", "setting": "U937 xenograft tumour [14]; s.c., 3 mg/kg mAb component, 4 doses every 4 days, N=10", "result": 50, "unit": "%"},
      {"measurement": "Mice free from tumour growth for a period of 90 days", "setting": "U937 xenograft tumour [14]; [15]", "result": 5, "unit": "mice"},
      {"measurement": "Mice with almost immediate relapse of tumour growth following treatment", "setting": "U937 xenograft tumour [14]; [15]", "result": 5, "unit": "mice"}
    ]}
  ]
}
